The target of assay [1] is endogenous HSP70 from the mouse Ret melanoma cell line (mouse) (UniProt Q61696). The assay is described as follows: cell-based or functional assay.
The target in another assay is recombinant HSP70 (UniProt P0DMV8). The assay is described as follows: ELISA, plate coated with recombinant HSP70, detection with anti-human peroxidase antibody. (In general: An ELISA detects its analyte on a solid surface through an enzyme-linked reagent.)
For assay [2], the target named is recombinant catalytic domain of human LOX (169-417) (human) (UniProt P28300). In words: ELISA, plate coated with LOX catalytic domain, detection with anti-human peroxidase antibody.
Chain of recombinant catalytic domain of human LOX (169-417) (human) (P28300 169-417 limits assumed): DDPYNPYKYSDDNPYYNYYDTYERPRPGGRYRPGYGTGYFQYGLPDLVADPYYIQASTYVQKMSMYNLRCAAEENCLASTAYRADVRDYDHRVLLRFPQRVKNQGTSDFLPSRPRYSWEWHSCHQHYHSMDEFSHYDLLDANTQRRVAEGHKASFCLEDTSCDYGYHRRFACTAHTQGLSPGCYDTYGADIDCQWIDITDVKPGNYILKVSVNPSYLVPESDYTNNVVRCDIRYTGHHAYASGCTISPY

pEC50: −log10 of the molar value.

Chain of recombinant HSP70 (P0DMV8 whole entry, the tested form may be a part): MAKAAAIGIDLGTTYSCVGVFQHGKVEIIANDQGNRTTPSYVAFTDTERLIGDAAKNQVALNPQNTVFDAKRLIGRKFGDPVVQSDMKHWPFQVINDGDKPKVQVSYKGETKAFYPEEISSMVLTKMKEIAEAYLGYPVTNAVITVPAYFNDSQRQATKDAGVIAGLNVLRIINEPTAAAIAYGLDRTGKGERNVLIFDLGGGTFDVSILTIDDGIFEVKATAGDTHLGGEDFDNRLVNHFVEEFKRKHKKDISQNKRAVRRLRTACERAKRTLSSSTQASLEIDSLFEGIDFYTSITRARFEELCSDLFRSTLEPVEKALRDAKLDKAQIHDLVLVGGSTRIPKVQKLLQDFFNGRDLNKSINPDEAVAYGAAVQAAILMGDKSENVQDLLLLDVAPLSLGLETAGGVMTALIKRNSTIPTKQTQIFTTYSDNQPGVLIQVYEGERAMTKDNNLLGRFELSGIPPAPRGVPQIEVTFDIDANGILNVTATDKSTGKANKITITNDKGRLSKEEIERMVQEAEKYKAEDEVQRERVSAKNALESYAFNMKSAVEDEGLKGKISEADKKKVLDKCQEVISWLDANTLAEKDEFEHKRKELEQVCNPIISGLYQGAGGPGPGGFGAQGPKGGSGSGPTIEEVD
Chain of endogenous HSP70 from the mouse Ret melanoma cell line (mouse) (Q61696 2-641): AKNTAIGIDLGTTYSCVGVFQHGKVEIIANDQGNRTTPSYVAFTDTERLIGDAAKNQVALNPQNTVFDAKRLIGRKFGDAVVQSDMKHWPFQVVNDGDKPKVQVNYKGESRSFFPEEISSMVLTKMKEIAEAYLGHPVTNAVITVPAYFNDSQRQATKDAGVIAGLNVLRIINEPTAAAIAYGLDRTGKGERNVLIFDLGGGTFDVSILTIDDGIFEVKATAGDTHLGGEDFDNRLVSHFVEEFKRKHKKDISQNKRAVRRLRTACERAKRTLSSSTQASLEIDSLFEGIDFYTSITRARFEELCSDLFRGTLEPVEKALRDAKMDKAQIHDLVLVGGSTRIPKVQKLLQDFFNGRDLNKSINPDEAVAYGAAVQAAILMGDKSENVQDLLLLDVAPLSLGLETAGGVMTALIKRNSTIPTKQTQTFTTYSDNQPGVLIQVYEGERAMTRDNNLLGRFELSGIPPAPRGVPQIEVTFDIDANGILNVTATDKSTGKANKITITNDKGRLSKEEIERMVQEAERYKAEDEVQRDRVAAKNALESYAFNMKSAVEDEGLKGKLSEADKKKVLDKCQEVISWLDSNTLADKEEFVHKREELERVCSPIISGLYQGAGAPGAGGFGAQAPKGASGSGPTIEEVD

The substance “AS2 (non-glycosylated LOX-PP fused to human IgG1 Fc) (Fc fusion)” gave an ATPase activity of HSP70 in the culture media of Ret-melanoma cells (decrease against Fc) in assay [1] of 18%. Besides, the pEC50 (with recombinant HSP70; in assay [2]) was 7.24 throughout.
